Target: E. coli RNA polymerase holoenzyme (native) (E. coli) (UniProt P0A8V2)

Substance: P2 Orf82 (Orf82 from Enterobacteria phage P2) (natural protein)
- IC50 for inhibition of rrnB P1 transcription, multiround in vitro transcription with E. coli RNAP (4 nM to 2,000 nM factor): 250 nM
